Positions of bridges follow the written chain, without caps; N, C: chain ends. Non-standard residues stand in square brackets, D forms with d. No end group written: not given here. Aib = CC(C)(N)C(=O)O
T1: human GIP receptor (human, UniProt P48546 22-466)
T1 sequence (looked up): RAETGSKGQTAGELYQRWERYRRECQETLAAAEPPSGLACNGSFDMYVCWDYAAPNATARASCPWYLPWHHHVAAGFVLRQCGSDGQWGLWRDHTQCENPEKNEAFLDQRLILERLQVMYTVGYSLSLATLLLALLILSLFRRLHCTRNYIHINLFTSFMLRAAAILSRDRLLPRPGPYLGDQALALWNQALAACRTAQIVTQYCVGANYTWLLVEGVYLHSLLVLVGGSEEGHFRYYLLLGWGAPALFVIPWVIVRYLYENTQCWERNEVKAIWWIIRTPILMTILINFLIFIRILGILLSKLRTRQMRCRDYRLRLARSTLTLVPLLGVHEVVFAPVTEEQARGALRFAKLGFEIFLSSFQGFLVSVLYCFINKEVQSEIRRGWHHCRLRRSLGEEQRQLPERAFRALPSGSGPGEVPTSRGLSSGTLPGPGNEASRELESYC


Key:
[1] = tested on: IPF mice (C57BL/6 mice treated with BLM); test: Lung fibrosis in bleomycin (BLM) mice, Masson's trichrome staining; format: in vivo; settings: BLM 1.5 U/head; 2 weeks; conjugate 3.9 nmol/kg Q2D subcutaneous; pirfenidone 300 mg/kg QD oral; ambroxol 45 mg/kg BID peritoneal; FIG. 5
Procedure: In order to confirm the in vivo efficacy of the long-acting conjugate of the triple agonist prepared in the above Examples for improving pulmonary fibrosis, particularly idiopathic pulmonary fibrosis (IPF), which is a representative pulmonary fibrosis, bleomycin (BLM) mice were used. It is known that, when bleomycin is administered intratracheally, the epithelial-mesenchymal transition occurs by damaging DNA of alveolar epithelial cells, which induces idiopathic fibrosis. In addition, it is known that when the BLM treatment dose is increased above a certain level, the survival rate of the mice is reduced due to severe lung damage caused by idiopathic fibrosis. […]
IPF mice prepared by treating C57BL/6 mice (ORIENT Bio, Busan, Korea) with BLM at 1.5 U/head were divided into an excipient control group, a long-acting conjugate of triple agonist administration group (3.9 nmol/kg, Q2D, subcutaneous), a pirfenidone administration group (300 mg/kg, QD, oral), and an ambroxol administration group (45 mg/kg, BID, peritoneal), repeated administration was performed for 2 weeks. After 2 weeks of repeated administration, lung tissue of each mouse was taken by autopsy, and the degree of fibrosis in the lung tissue was evaluated by Masson's trichrome staining. Statistical treatment evaluated the efficacy of the long-acting conjugate of the triple agonist using one-way ANOVA (*-***p<0.05-0.001).

human GLP-1 receptor = human GLP-1 receptor (human, UniProt P43220 24-463); test: cell-based or functional assay
human GCG receptor = human GCG receptor (human, UniProt P47871 26-477); test: cell-based or functional assay
Sequence of human GCG receptor (P47871 26-477): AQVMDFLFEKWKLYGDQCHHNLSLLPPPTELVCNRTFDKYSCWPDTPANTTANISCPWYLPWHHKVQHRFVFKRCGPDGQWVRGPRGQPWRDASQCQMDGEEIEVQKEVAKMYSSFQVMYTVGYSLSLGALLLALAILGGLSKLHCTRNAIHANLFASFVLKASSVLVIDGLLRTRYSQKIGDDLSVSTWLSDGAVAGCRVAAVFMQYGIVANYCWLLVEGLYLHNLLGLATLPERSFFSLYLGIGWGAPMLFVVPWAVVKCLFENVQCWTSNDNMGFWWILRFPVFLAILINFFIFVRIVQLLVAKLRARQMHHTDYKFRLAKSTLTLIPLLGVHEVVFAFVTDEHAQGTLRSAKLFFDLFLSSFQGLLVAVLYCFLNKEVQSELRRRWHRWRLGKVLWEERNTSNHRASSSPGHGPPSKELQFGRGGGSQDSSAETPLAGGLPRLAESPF

human GIP receptor = target: T1, human GIP receptor; test: cell-based or functional assay

Row | Molecule | positive area of Masson's trichrome staining in the lung tissue (degree of fibrosis) [1] | In vitro Activity Compared to Native Peptide (%) vs. GLP-1 (human GLP-1 receptor) | In vitro Activity Compared to Native Peptide (%) vs. Glucagon (human GCG receptor) | In vitro Activity Compared to Native Peptide (%) vs. GIP (human GIP receptor)
1 | Nc1c(Br)cc(Br)cc1CN[C@H]1CC[C@H](O)CC1 [ambroxol, reference compound] | same level of efficacy as the long-acting conjugate of the triple agonist | – | – | –
2 | Y[Aib]QGTFTSDYSKYLDECRAKEFVQWLLAQKGKKNDWKHNIT (bridge 16-20) [triple agonist of SEQ ID NO: 23] | – | 4.01% | 9.3% | < 0.1%
3 | H[Aib]QGTFTSDVSSYLLGQAAKQFIAWLVKGGGPSSGAPPPSC [triple agonist of SEQ ID NO: 3] | – | 1.8% | < 0.1% | < 0.1%
4 | Y[Aib]QGTFTSDYSKYLDECRAKEFVQWLKNGGPSSGAPPPS (bridge 16-20) [triple agonist of SEQ ID NO: 24] | – | 41.2% | 9.3% | < 0.1%
5 | H[Aib]QGTFTSDCSKYLDERAAQDFVQWLLDGGPSSGAPPPS [triple agonist of SEQ ID NO: 25] | – | 82.6% | 0.1% | < 0.1%
6 | H[Aib]QGTFTSDCSKYLDSRAAQDFVQWLLDGGPSSGAPPPS [triple agonist of SEQ ID NO: 26] | – | 64.5% | 0.2% | < 0.1%
7 | H[Aib]QGTFTSDYSKYLDERACQDFVQWLLDQGGPSSGAPPPS [triple agonist of SEQ ID NO: 27] | – | 83.1% | 0.8% | 0.9%
8 | H[Aib]QGTFTSDYSKYLDEKRAQEFVCWLLAQKGKKNDWKHNIT [triple agonist of SEQ ID NO: 28] | – | 17.2% | 1.6% | < 0.1%
9 | H[Aib]QGTFTSDYSKYLDEKAAKEFVQWLLNTC (bridge 16-20) [triple agonist of SEQ ID NO: 29] | – | 38.5% | 6% | < 0.1%
10 | H[Aib]QGTFTSDYSKYLDEKAQKEFVQWLLDTC (bridge 16-20) [triple agonist of SEQ ID NO: 30] | – | 142% | 0.7% | 0.8%
11 | H[Aib]QGTFTSDYSKYLDEKACKEFVQWLLAQ (bridge 16-20) [triple agonist of SEQ ID NO: 31] | – | 135% | 2.2% | 2.4%
12 | H[Aib]QGTFTSDYSKYLDEKACKDFVQWLLDGGPSSGAPPPS (bridge 16-20; also: ring type not given here) [triple agonist of SEQ ID NO: 32] | – | 151% | 1.7% | 8.8%
13 | H[Aib]QGTFTSDYSIAMDEIHQKDFVNWLLAQKC (bridge 16-20; also: ring type not given here) [triple agonist of SEQ ID NO: 33] | – | 24.5% | < 0.1% | 10.4%

— US20230118307A1, “THERAPEUTIC USE OF LONG-ACTING CONJUGATE OF TRIPLE AGONIST HAVING ACTIVITIES TO ALL OF GLUCAGON/GLP-1/GIP RECEPTORS FOR LUNG DISEASE” (HANMI PHARM. CO., LTD., priority 2020, published 2023)
